{
  "source": "patent US20030144495",
  "about": "“Drosophila recombination-associated protein and methods for use” (Albert Einstein College of Medicine of Yeshiva University, published 2003)",
  "molecular_target": "RecA (Escherichia coli, UniProt P0A7G6 P0A7G6:2-353)",
  "sequence (P0A7G6 2-353, one chain of several)": "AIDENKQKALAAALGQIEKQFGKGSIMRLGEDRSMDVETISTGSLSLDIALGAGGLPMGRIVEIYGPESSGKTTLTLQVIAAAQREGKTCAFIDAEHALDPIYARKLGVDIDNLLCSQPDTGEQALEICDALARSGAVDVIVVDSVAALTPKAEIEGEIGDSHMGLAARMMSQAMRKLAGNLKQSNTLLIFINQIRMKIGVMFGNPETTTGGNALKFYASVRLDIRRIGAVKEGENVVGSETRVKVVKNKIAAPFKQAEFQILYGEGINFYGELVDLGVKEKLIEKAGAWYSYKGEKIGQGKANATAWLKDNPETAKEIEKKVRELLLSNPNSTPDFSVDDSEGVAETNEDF",
  "assay": "EMSA; gel shift in presence of ATP-gamma-S, 20 mM Tris pH 7.35, 10 mM MgCl2, 37 C",
  "settings": "tags: commercial, Promega/Pharmacia/USB; label: 5'-32P",
  "experimental": "Any oligonucleotide may be used for this assay. For this experiment, an oligonucleotide (33-mer) derived from the central portion of the pUC19 poly linker 5′-[…]-3′ [SEQ ID NO: 20] was endlabeled at the 5′ end with ³²P-ATP using T4 polynucleotide kinase. The oligonucleotide was purified on Qiaquick columns using buffer PN (Qiagen) and the OD at 260 nm indicated a concentration of 5 ng/μl. Any oligonucleotide sequence may be used in this experiment. The SEQ ID NO: 16 oligonucleotide was incubated with 60 ng of DRAP or RecA in various buffers for 30 minutes at 37° C. A loading buffer was added and the material separated on a 6% 1×TAE, polyacrylamide minigel at 250 V for 14 minutes. The gel was dried and exposed to film with one intensifying screen for ˜16 hrs. at −80° C. No degradation of the oligonucleotide was observed. (FIG. 8.) Gel shifting with RecA in the presence of […] is consistent with the known properties of that protein.",
  "data": [
    {"binder": "GGTACCCGGGGATCCTCTAGAGTCGACCTGCAG (ssDNA)", "note": "[pUC19 polylinker 33-mer]", "values": [
      {"measurement": "binding result", "result": "binds"}
    ]}
  ]
}
